Experimental findings from paper PMC5895659, “Mechanistic and Structural Insights Into the Unique TetR-Dependent Regulation of a Drug Efflux Pump in Mycobacterium abscessus” (Frontiers in Microbiology, 2018) are described below.

The target in data set [1] is T1, MAB_4384 (TetR regulator) (Mycobacterium abscessus subsp. …, UniProt B1MJU8 1-221). Put plainly: EMSA; 280 nM probe; EMSA: 280 nM fluorescein probe, 1X TAE, 1 h, room temperature, 6% native PAGE in 1X TAE; SEC: 50 mM Tris-HCl pH 8, 200 mM NaCl, 5 mM beta-mercaptoethanol, 4 C. Particulars: protein: recombinant; tags: Trx-His6 tag removed by TEV; residual Gly at N-terminus; chain copies: 4; label: 5' fluorescein; blunt.

A further data set addresses T2, MAB_4384 (D14N/F57L) (Mycobacterium abscessus subsp. …, UniProt B1MJU8 1-221, D14N;F57L).
T2 sequence: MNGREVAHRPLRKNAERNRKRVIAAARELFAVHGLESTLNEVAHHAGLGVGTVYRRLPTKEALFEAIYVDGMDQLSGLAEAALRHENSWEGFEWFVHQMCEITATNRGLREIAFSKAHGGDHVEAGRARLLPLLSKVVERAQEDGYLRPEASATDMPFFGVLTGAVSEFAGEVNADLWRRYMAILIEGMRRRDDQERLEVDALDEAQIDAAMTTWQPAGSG
Kind of data set: EMSA; fully abrogated; EMSA: 280 nM fluorescein probe, 1X TAE, 1 h, room temperature, 6% native PAGE in 1X TAE; SEC: 50 mM Tris-HCl pH 8, 200 mM NaCl, 5 mM beta-mercaptoethanol, 4 C. Particulars: protein: recombinant; tags: Trx-His6 tag removed by TEV; residual Gly at N-terminus; chain copies: 2; label: 5' fluorescein; blunt. Background: A gel shift assay detects complexes by their altered migration in electrophoresis.

Data set [2] addresses T1, MAB_4384 (TetR regulator). Put plainly: competition; cold probe vs 280 nM labeled Probe 1; dose-dependent decrease; EMSA: 280 nM fluorescein probe, 1X TAE, 1 h, room temperature, 6% native PAGE in 1X TAE; SEC: 50 mM Tris-HCl pH 8, 200 mM NaCl, 5 mM beta-mercaptoethanol, 4 C. Particulars: protein: recombinant; tags: Trx-His6 tag removed by TEV; residual Gly at N-terminus; chain copies: 4; blunt.

Data set [3] concerns the molecule itself. Put plainly: SEC; ENrich SEC 650 column, 50 mM Tris-HCl pH 8, 200 mM NaCl, 5 mM beta-mercaptoethanol, 0.4 mL/min, 4 °C; MAB_4384 at 3.9 mg/mL; apparent mass from a calibration curve (42.6 kDa against 24.7 kDa theoretical).
In data set [4] the target is MAB_4384 (TetR regulator) (Mycobacterium abscessus subsp. …, UniProt B1MJU8 1-221). Put plainly: competition; excess non-related labeled probe; shift of Probe 1 maintained; EMSA: 280 nM fluorescein probe, 1X TAE, 1 h, room temperature, 6% native PAGE in 1X TAE; SEC: 50 mM Tris-HCl pH 8, 200 mM NaCl, 5 mM beta-mercaptoethanol, 4 C. The conditions noted are these: protein: recombinant; tags: Trx-His6 tag removed by TEV; residual Gly at N-terminus; chain copies: 4; label: 5' fluorescein; blunt.

Data set [5] addresses T1, MAB_4384 (TetR regulator). Kind of data set: EMSA; comparable to Probe 1; EMSA: 280 nM fluorescein probe, 1X TAE, 1 h, room temperature, 6% native PAGE in 1X TAE; SEC: 50 mM Tris-HCl pH 8, 200 mM NaCl, 5 mM beta-mercaptoethanol, 4 C. Particulars: protein: recombinant; tags: Trx-His6 tag removed by TEV; residual Gly at N-terminus; chain copies: 4; label: 5' fluorescein; blunt.

Residue numbers refer to the chain shown, from its start.

Usually stoichiometry N stands for the number of molecules, sites or subunits per partner or assembly.

B1: Probe 1 (IRS5/L5 operator) (dsDNA)
DNA 1: CACTTCGCCATAAGTGGATTGACTCTATCCACTTTTACCCATAGA
DNA 2: TCTATGGGTAAAAGTGGATAGAGTCAATCCACTTATGGCGAAGTG
B1: the binding result is given as “binds” in data set [1] and “no binding” in the data set with MAB_4384 (D14N/F57L).

B2: Probe 1 unlabeled (dsDNA)
DNA 1: B1 DNA 1
DNA 2: B1 DNA 2
Take B2: the binding result in data set [2] is on record as “binds”.

B3: MAB_4384 TetR regulator (natural protein)
chain: T2 sequence with N14D, L57F
notes: MAB_4384, TetR family transcriptional repressor of Mycobacterium abscessus subsp. abscessus CIP104536T; amplified from genomic DNA with the MAB_4384_full primers; theoretical mass 24.7 kDa; the account of the structure (chain A modelled Asp14 to Thr213, first thirteen and last eight residues not visible) implies residues 1-221; also called wild-type MAB_4384; source: E. coli BL21 Rosetta 2 (DE3), …
With B3, in data set [3], the “stoichiometry N” value was 2.

B4: Non-specific probe (dsDNA)
DNA 1: ATGGAACTTGAAGGACTGACCGCGTTG
DNA 2: CAACGCGGTCAGTCCTTCAAGTTCCAT
For B4, the binding result in data set [4] is given as “no binding”.

B5: Probe 3 (flanks randomly changed) (dsDNA)
DNA 1: TCTGGATAAGCAAGTGGATTGACTCTATCCACTTCCGAAACCGAC
DNA 2: GTCGGTTTCGGAAGTGGATAGAGTCAATCCACTTGCTTATCCAGA
With B5, in data set [5], the binding result is “binds”.
